Results: the supplement of paper PMC9112550, “Optimization of the antimicrobial peptide Bac7 by deep mutational scanning” (BMC Biology, 2022)

Test system: Escherichia coli TOP10
Test: shrunken log2 fold change of peptide-encoding DNA abundance (4.5 h post-induction vs induction); higher = less antimicrobial activity (less host growth inhibition)
Conditions: time post-induction: 4.5 h; library: site-saturation at positions 5, 18, 19, 20
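Further: peptides expressed intracellularly from a pBAD plasmid library in pooled LB shake-flask culture, induced with 0.3% L-arabinose, DNA abundance read by NGS, three biological replicates, DESeq2 with apeglm shrinkage.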

Row | Sequence | shrunken log2 fold change
1 | RRIRIRPPRLPRPRPRPDNIPRP | -0.116
2 | RRIRLRPPRLPRPRPRPMVMPRP | -0.0937
3 | RRIRIRPPRLPRPRPRPRNDPRP | -0.543
4 | RRIRSRPPRLPRPRPRPQEMPRP | 0.111
5 | RRIRYRPPRLPRPRPRPFRAPRP | -0.142
6 | RRIRSRPPRLPRPRPRPMVIPRP | -0.0364
7 | RRIRTRPPRLPRPRPRPVLIPRP | 0.233
8 | RRIRERPPRLPRPRPRPNMMPRP | -0.612
9 | RRIRLRPPRLPRPRPRPTISPRP | -0.375
10 | RRIRSRPPRLPRPRPRPKHHPRP | -0.387
11 | RRIRQRPPRLPRPRPRPPHEPRP | 0.559
12 | RRIRYRPPRLPRPRPRPHRAPRP | -0.213
13 | RRIRSRPPRLPRPRPRPNANPRP | 0.0564
14 | RRIRCRPPRLPRPRPRPKFGPRP | 0.231
15 | RRIRYRPPRLPRPRPRPPANPRP | 0.169
16 | RRIRWRPPRLPRPRPRPTDNPRP | -0.17
17 | RRIRKRPPRLPRPRPRPVQAPRP | 0.741
18 | RRIRVRPPRLPRPRPRPVLCPRP | 0.0228
19 | RRIRNRPPRLPRPRPRPAMSPRP | -0.137
20 | RRIRERPPRLPRPRPRPRWVPRP | -0.0454
21 | RRIRPRPPRLPRPRPRPKERPRP | 0.128
22 | RRIRHRPPRLPRPRPRPQHNPRP | 0.22
23 | RRIRNRPPRLPRPRPRPPKGPRP | 0.112
24 | RRIRKRPPRLPRPRPRPPCNPRP | 0.189
25 | RRIRPRPPRLPRPRPRPVHGPRP | 0.0843

Row | Sequence | shrunken log2 fold change
26 | RRIRVRPPRLPRPRPRPKSWPRP | 0.224
27 | RRIRMRPPRLPRPRPRPSKWPRP | -0.104
28 | RRIRMRPPRLPRPRPRPYPRPRP | 0.112
29 | RRIRCRPPRLPRPRPRPWEAPRP | 0.0139
30 | RRIRRRPPRLPRPRPRPYQVPRP | -0.0648
31 | RRIRARPPRLPRPRPRPENTPRP | 0.397
32 | RRIRKRPPRLPRPRPRPLACPRP | -0.0149
33 | RRIRCRPPRLPRPRPRPSCQPRP | -0.375
34 | RRIRMRPPRLPRPRPRPSHPPRP | -0.0222
35 | RRIRHRPPRLPRPRPRPIYKPRP | -0.393
36 | RRIRIRPPRLPRPRPRPFTEPRP | 0.0282
37 | RRIRGRPPRLPRPRPRPIWNPRP | 0.37
38 | RRIRLRPPRLPRPRPRPKRVPRP | -0.116
39 | RRIRMRPPRLPRPRPRPRIVPRP | 0.16
40 | RRIRSRPPRLPRPRPRPPVFPRP | 0.368
41 | RRIRRRPPRLPRPRPRPCVWPRP | 0.999
42 | RRIRHRPPRLPRPRPRPEYYPRP | -0.241
43 | RRIRGRPPRLPRPRPRPQWFPRP | 0.282
44 | RRIRDRPPRLPRPRPRPKLVPRP | 0.0305
45 | RRIRPRPPRLPRPRPRPIIGPRP | -0.0597
46 | RRIRCRPPRLPRPRPRPQCAPRP | 0.166
47 | RRIRIRPPRLPRPRPRPPRRPRP | 0.396
48 | RRIRFRPPRLPRPRPRPMCEPRP | -0.236
49 | RRIRSRPPRLPRPRPRPMEEPRP | -0.01
50 | RRIRERPPRLPRPRPRPNKMPRP | -0.324

Row | Sequence | shrunken log2 fold change
51 | RRIRKRPPRLPRPRPRPTRNPRP | 0.547
52 | RRIRMRPPRLPRPRPRPEDYPRP | 1.06
53 | RRIRWRPPRLPRPRPRPYRCPRP | 0.0623
54 | RRIRPRPPRLPRPRPRPTAGPRP | 0.252
55 | RRIRTRPPRLPRPRPRPAHLPRP | -0.000138
56 | RRIRKRPPRLPRPRPRPLQMPRP | -0.0261
57 | RRIRLRPPRLPRPRPRPVWMPRP | 0.372
58 | RRIRPRPPRLPRPRPRPCAFPRP | -0.148
59 | RRIRCRPPRLPRPRPRPKEAPRP | 0.085
60 | RRIRGRPPRLPRPRPRPDQHPRP | 0.271
61 | RRIRTRPPRLPRPRPRPSWDPRP | -0.262
62 | RRIRSRPPRLPRPRPRPYFTPRP | 1.09
63 | RRIRDRPPRLPRPRPRPRIQPRP | -0.0934
64 | RRIRTRPPRLPRPRPRPMFWPRP | 0.285
65 | RRIRSRPPRLPRPRPRPDTPPRP | -0.0107
66 | RRIRHRPPRLPRPRPRPAAVPRP | 0.0752
67 | RRIRSRPPRLPRPRPRPSIVPRP | -0.525
68 | RRIRDRPPRLPRPRPRPHSAPRP | 0.0279
69 | RRIRDRPPRLPRPRPRPKVSPRP | 0.036
70 | RRIRSRPPRLPRPRPRPKVRPRP | 0.0559
71 | RRIRYRPPRLPRPRPRPWKQPRP | -0.0389
72 | RRIRFRPPRLPRPRPRPICAPRP | 0.0631
73 | RRIRNRPPRLPRPRPRPDPLPRP | -0.0328
74 | RRIRERPPRLPRPRPRPCYRPRP | -0.357
75 | RRIRYRPPRLPRPRPRPRCCPRP | -0.233

Row | Sequence | shrunken log2 fold change
76 | RRIRHRPPRLPRPRPRPRGWPRP | 0.629
77 | RRIRNRPPRLPRPRPRPEIVPRP | 0.106
78 | RRIRMRPPRLPRPRPRPMSEPRP | 0.102
79 | RRIRIRPPRLPRPRPRPSCYPRP | -0.392
80 | RRIRARPPRLPRPRPRPRYLPRP | -0.351
81 | RRIRFRPPRLPRPRPRPDMDPRP | -0.107
82 | RRIRIRPPRLPRPRPRPIICPRP | -0.775
83 | RRIRDRPPRLPRPRPRPNGWPRP | 0.612
84 | RRIRGRPPRLPRPRPRPIYDPRP | -0.259
85 | RRIRERPPRLPRPRPRPTAPPRP | -0.043
86 | RRIRVRPPRLPRPRPRPFMMPRP | 0.097
87 | RRIRTRPPRLPRPRPRPLDGPRP | 0.0872
88 | RRIRWRPPRLPRPRPRPMYCPRP | 0.0174
89 | RRIRSRPPRLPRPRPRPVKWPRP | -0.03
90 | RRIRYRPPRLPRPRPRPINVPRP | -0.208
91 | RRIRGRPPRLPRPRPRPGVFPRP | 0.465
92 | RRIRYRPPRLPRPRPRPSIDPRP | -0.519
93 | RRIRDRPPRLPRPRPRPEQIPRP | -0.0105
94 | RRIRFRPPRLPRPRPRPNHRPRP | -0.306
95 | RRIRYRPPRLPRPRPRPVAIPRP | -0.702
96 | RRIRLRPPRLPRPRPRPGMPPRP | -0.15
97 | RRIRFRPPRLPRPRPRPMYKPRP | -0.662
98 | RRIRTRPPRLPRPRPRPDVAPRP | -0.0174
99 | RRIRCRPPRLPRPRPRPLMKPRP | -0.275
100 | RRIRHRPPRLPRPRPRPNSEPRP | -0.795

Row | Sequence | shrunken log2 fold change
101 | RRIRERPPRLPRPRPRPGEDPRP | -0.0649
102 | RRIRARPPRLPRPRPRPVTPPRP | 0.479
103 | RRIRLRPPRLPRPRPRPHPMPRP | -0.173
104 | RRIRQRPPRLPRPRPRPCMEPRP | -0.1
105 | RRIRFRPPRLPRPRPRPGVSPRP | 0.323
106 | RRIRTRPPRLPRPRPRPVMHPRP | 0.102
107 | RRIRPRPPRLPRPRPRPCSKPRP | 0.0051
108 | RRIRDRPPRLPRPRPRPSAWPRP | 0.123
109 | RRIRQRPPRLPRPRPRPVAMPRP | 0.0794
110 | RRIRGRPPRLPRPRPRPLAQPRP | 0.888
111 | RRIRWRPPRLPRPRPRPHSVPRP | 0.0489
112 | RRIRGRPPRLPRPRPRPRPTPRP | 0.906
113 | RRIRMRPPRLPRPRPRPIVAPRP | 0.156
114 | RRIRARPPRLPRPRPRPQDDPRP | 0.274
115 | RRIRARPPRLPRPRPRPGGIPRP | 0.254
116 | RRIRNRPPRLPRPRPRPQPEPRP | 0.0878
117 | RRIRPRPPRLPRPRPRPWFMPRP | -0.18
118 | RRIRGRPPRLPRPRPRPMPKPRP | 0.884
119 | RRIRDRPPRLPRPRPRPFVRPRP | -0.234
120 | RRIRKRPPRLPRPRPRPYGNPRP | -0.135
121 | RRIRGRPPRLPRPRPRPPFIPRP | 0.627
122 | RRIRKRPPRLPRPRPRPWMVPRP | 0.0578
123 | RRIRHRPPRLPRPRPRPVWWPRP | 0.174
124 | RRIRMRPPRLPRPRPRPRYNPRP | -0.151
125 | RRIRSRPPRLPRPRPRPDCGPRP | 0.0769

Row | Sequence | shrunken log2 fold change
126 | RRIRSRPPRLPRPRPRPFLTPRP | -0.437
127 | RRIRQRPPRLPRPRPRPSVDPRP | -0.00902
128 | RRIRDRPPRLPRPRPRPSPVPRP | 0.0438
129 | RRIRCRPPRLPRPRPRPAPHPRP | 0.625
130 | RRIRCRPPRLPRPRPRPWQIPRP | -0.153
131 | RRIRSRPPRLPRPRPRPYVPPRP | -0.784
132 | RRIRHRPPRLPRPRPRPTNTPRP | -0.384
133 | RRIRGRPPRLPRPRPRPTMEPRP | 0.751
134 | RRIRMRPPRLPRPRPRPWPDPRP | 0.592
135 | RRIRTRPPRLPRPRPRPPDEPRP | 0.0184
136 | RRIRARPPRLPRPRPRPTNPPRP | 0.288
137 | RRIRRRPPRLPRPRPRPDLKPRP | 0.162
138 | RRIRWRPPRLPRPRPRPCEHPRP | 0.0123
139 | RRIRERPPRLPRPRPRPWTKPRP | 0.0475
140 | RRIRMRPPRLPRPRPRPVKNPRP | 0.00715
141 | RRIRVRPPRLPRPRPRPRTQPRP | 0.0785
142 | RRIRARPPRLPRPRPRPTAFPRP | 0.815
143 | RRIRDRPPRLPRPRPRPSWLPRP | 0.339
144 | RRIRGRPPRLPRPRPRPWMHPRP | -0.00858
145 | RRIRGRPPRLPRPRPRPAGQPRP | 0.727
146 | RRIRPRPPRLPRPRPRPTNCPRP | -0.169
147 | RRIRRRPPRLPRPRPRPCCAPRP | 0.372
148 | RRIRCRPPRLPRPRPRPCCIPRP | -0.166
149 | RRIRRRPPRLPRPRPRPSSKPRP | -0.145
150 | RRIRGRPPRLPRPRPRPYMTPRP | 0.109
